This note sets out measurements from article PMC12622350.

The target in this data set is T1, NikR (Helicobacter pylori 26695) (UniProt O25896).
T1 sequence: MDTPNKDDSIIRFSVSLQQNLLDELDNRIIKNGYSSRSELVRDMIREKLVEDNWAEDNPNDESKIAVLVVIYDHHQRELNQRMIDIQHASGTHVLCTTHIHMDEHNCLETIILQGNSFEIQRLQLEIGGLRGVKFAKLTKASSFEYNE
Description: EMSA. Background: In EMSA bound probe runs differently from free probe, usually more slowly.
As for “TAAGCTTTTTTCTTTTTTTTTGATTTAATACTAGGTATAATTTTAATTCCACCTAACAAGGAAAAGCTATGAAAGTAACACAAGGCATTGCTAACGACTTTTTTGCCCTAACAAACACGA (double strand) [Probe-flgR 2]”, the binding result is given as “binds”. Turning to “TTGGGTTGATTTAACTCAAGCAAATTTTCTTCAATCCTAACAAATTTGGCTGCAAATTAAAAAATTTAAGCTTTTTTCTTTTTTTTTGATTTAATACTAGGTATAATTTTAATTCCACCT (double strand) [Probe-flgR 1]”, the binding entry is given as “binds”.

“TAGCAATGTTTTGATTTACTAAGATTAACAGAAGCGTTCATTAACTAATTATTATTTAAAATGAATTAGTGTTATATCTTTGAAGCGCTATAAAATCGTTATTAGAAGTGCGTTTAATAC (double strand) [OPhp0073]”: the binding result is reported as “binds”.
